# Test results reported in patent publication US20020045158, “Cells for drug discovery” (published 2002).
# B1: VEGF 18-bp target JVF9/JVF10 (dsDNA)
# DNA 1: AGCGAGCGGGGAGGATCGCGGAGGCTTGGGGCAGCCGGGTAG
# DNA 2: CGCTCTACCCGGCTGCCCCAAGCCTCCGCGATCCTCCCCGCT
# B2: hKCa4 target site (dsDNA)
# DNA 1: GGGGAGGGC
# DNA 2: GCCCTCCCC
# What was measured:
# [1] = system: SP-1 zinc finger domain (Homo sapiens); assay: EMSA; details: target sequence not given
# Zif268 = assay: EMSA; details: target sequence not given; literature 2-30 nM; cited from earlier work
# VEGF3a/1 six-finger ZFP = target: T1, VEGF3a/1 six-finger ZFP (artificial (human SP-1 backbone)); assay: competition; half-life of complex relative to VEGF1, EMSA competition at 37 C; details: tags: MBP N-terminal fusion; label: 5' 32P
# T1 chain: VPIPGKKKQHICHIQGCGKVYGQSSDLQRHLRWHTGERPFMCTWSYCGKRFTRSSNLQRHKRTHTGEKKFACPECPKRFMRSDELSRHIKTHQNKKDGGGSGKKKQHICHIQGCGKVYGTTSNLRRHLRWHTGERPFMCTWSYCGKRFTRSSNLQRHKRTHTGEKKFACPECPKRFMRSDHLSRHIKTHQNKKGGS
# Procedure: For the EMSA studies, 20 μl binding reactions contained 10 fmole (0.5 nM) 5′ ³²P-labeled double-stranded target DNA, 35 mM Tris HCl (pH 7.8), 100 mM KCl, 1 mM MgCl₂, 5 mM dithiothreitol, 10% glycerol, 20 μg/ml poly dI-dC, 200 μg/ml bovine serum albumin, and 25 μM ZnCl₂. Protein was added as one fifth volume from a 3-fold dilution series. Binding was allowed to proceed for 60 min at either room temperature or 37° C. Polyacrylamide gel electrophoresis was carried out at room temperature or 37° C. using precast 10% or 10-20% Tris-HCl gels (BioRad) and standard Tris-Glycine running buffer. The room temperature assays yielded an apparent Kd for this VEGF3a/1 protein of approximately 1.5 nM. Thus, the 18-bp binding ZFP bound with high affinity to its target site. […] When binding and electrophoresis were performed at 37° C., the apparent Kd of VEGF3a/1 was approximately 9 nM when tested against the 18-bp target, compared to a Kd of 40 nM for VEGF1 tested against its target.
# The apparent Kd is a useful measure of the affinity of a protein for its DNA target. However, for a DNA binding site either in vitro or in vivo, its occupancy is determined to a large extent by the off-rate of the DNA-binding protein. This parameter can be measured by competition experiments. The conditions for EMSA were as described above; binding and electrophoresis were performed at 37° C. […]
# ZFP3A-VP16 / KRAB-ZFP3A = target: T2, ZFP3A-VP16 / KRAB-ZFP3A (artificial, UniProt P08047); assay: cell_activity; VP16 fusion on cotransfected reporter; KRAB fusion lowered hKCa4 conductance to 1.0 nS vs 10.0 for empty vector; details: tags: VP16 or KRAB fusion
# T2 chain: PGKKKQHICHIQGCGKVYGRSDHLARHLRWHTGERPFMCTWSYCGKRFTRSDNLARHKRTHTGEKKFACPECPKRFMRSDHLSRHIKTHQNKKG
molecule,measurement,setting,value
SP-1 target site,Kd,[1],65 nM
Zif268 target site,Kd,Zif268,60 nM
B1,binding signal,VEGF3a/1 six-finger ZFP,> 10 fold
B2,activity,ZFP3A-VP16 / KRAB-ZFP3A,> 5 fold activation
